According to the Human Domainome abundance scans (Beltran et al. 2025):

B1: Bromodomain adjacent to zinc finger domain protein 2B, residues 1927 to 1982; numbered along this chain, Q9UIF8 (parent)
chain: KSIMKVYCQICRKGDNEELLLLCDGCDKGCHTYCHRPKITTIPDGDWFCPACIAKA
B2: Zinc finger homeobox protein 3, residues 2244 to 2299; numbered along this chain, Q15911 (parent)
chain: SSRTRFTDYQLRVLQDFFDANAYPKDDEFEQLSNLLNLPTRVIVVWFQNARQKARK

Variants of: B1
Assay: abundance fitness (aPCA) (normalised: wild type 0, dead -1); higher = more abundant; growth selection in yeast, the domain comes from the species named
Details: Homo sapiens

Abundance fitness: each site, then its substitutions
K5: S -0.019; Q -0.113; M -0.083; C -0.125; A -0.158; D -0.162; T -0.056; E -0.156; W -0.303; G -0.077; F -0.444; P -0.198; R -0.095; L -0.202; V -0.176; N -0.035; I -0.334
I3: S -0.052; L -0.189; V -0.079; E -0.103; Q 0.104; C -0.129; D 0.059; T -0.063; P -0.081; W -0.221; R -0.125; M -0.088; N 0.105; Y -0.327; F -0.282; H -0.144; A 0.014
S2: W -0.379; V -0.156; G 0.065; K -0.1; D 0.061; P -0.243; Y -0.558; T 0.019; I 0.051; H 0.085; R -0.077; C -0.181; A -0.084; F -0.155; N -0.506; M -0.23; E 0.034; Q -0.073
K1: E -0.035; T -0.155; A -0.398; I -0.262; D -0.199; L -0.693; R -0.366; M -0.157; C -0.279; V -0.581; S -0.176; Y -0.318; F -0.783
M4: S -0.161; A -0.316; H -0.009; E -0.184; T -0.06; L -0.145; G -0.325; V -0.138; I -0.068; P -0.183; Q -0.065; K -0.127; N -0.169; C -0.054; R -0.157
Y7: A -0.09; P -0.179; H -0.045; L -0.14; N 0.057; D 0.142; V -0.145; E -0.018; M -0.059; S -0.025; R -0.152; G -0.118; F -0.086; I -0.197; T -0.102; K -0.147; Q -0.043; C -0.136
V6: F 0.064; R 0.036; M -0.064; Y 0.171; C -0.208; S 0.014; T -0.028; Q -0.043; E -0.092; D -0.007; K 0.117; N -0.124; G -0.045; H -0.036; L -0.076; I -0.068; P -0.143; A -0.132
C8: H -1.02; F -0.978; D -1; I -1.34; E -0.836; A -1.25; L -1.13; G -0.916

Variants of: B2
Assay: as above
Details: Homo sapiens

Abundance fitness, by site and new letter:
A50: I -0.241; R -0.061; V -0.322; W -0.496; S -0.084; L -0.159; H -0.253; D -1.01; M 0.047; G -0.298; Q -0.197; P -1.01; K -0.09; C -0.047; N 0.009; Y -0.196; T -0.08; E -0.095
Q48: C -0.221; K -0.034; F -0.245; G -0.029; A -0.146; L -0.309; T -0.168; R -0.071; H -0.407; N -0.259; E 0.086; S -0.022; W -0.554; I -0.085; V -0.066
K53: V -0.085; A 0.032; Y -0.12; D 0.202; W -0.083; E 0.162; G -0.005; R -0.116; P -0.237; T -0.008; S 0.062; I -0.019; C -0.029; M 0.008; H 0.013; Q -0.109; N 0.138; L -0.013
V45: A 0.004; L -0.12; S 0.008; F -0.171; T -0.028; I -0.055; Y -0.19; G 0.077; D 0.155; H 0.032; C 0.088; Q 0.046; M -0.142; P -0.21; W -0.136; E 0.244; K -0.061
F47: K -0.983; G -0.66; I -0.408; W -0.399; V -0.565; D -0.751; S -0.75; H -0.534; A -0.729; N -0.928; R -0.941; Q -1.02; P -0.89; Y -0.112; C -0.728; E -0.762; L -0.639; T -0.618
I43: V -0.056; C -0.36; R -0.837; L -0.163; D -0.772; T -0.396; S -0.845; Q -0.637; K -0.744; W -0.879; A -0.56; G -0.637; E -1.07; H -1.13; F -0.792; N -1; M -0.439
A54: G 0.081
N49: E 0.141; S -0.056; V -0.362; L -0.334; F -0.581; C -0.163; H -0.249; Q -0.207; P -0.986; W -0.252; T -0.119; Y -0.497; G 0.046; M -0.287; R -0.207; K -0.024; D 0.066; A -0.222; I -0.259
R51: S -0.256; C -0.168; L -0.137; H -0.382; G -0.606
K56: G -0.029; Q -0.163; Y -0.158; P 0.004; I -0.302; D -0.026; A 0.063; T -0.032; M -0.045; N 0.103; H -0.053; F -0.089; R -0.028
Q52: K -0.077; A -0.008; F -0.21; R -0.135; N -0.144; M -0.142; T -0.036; P -0.263; V 0.128; Y -0.14; H -0.092; S -0.023; D 0.239; C 0.002; L -0.107; W -0.204
W46: Q -1.17; D -1.14; H -0.617; P -1.07; S -0.526; F -0.244; K -0.764; L -1.09; E -0.749; V -0.88; T -0.611; M -0.81; A -0.86; G -0.856; C -0.759
V44: Q -0.015; H -0.524; W -0.084; R -0.093; S 0.08; D 0.121; A -0.134; Y -0.571; G 0.034; L -0.005; M -0.031; F -0.174; E -0.059; K -0.071; I -0.223; T -0.056
V42: Y -0.134; R -0.083; T 0.186; W -0.146
R55: A -0.172; S 0.142; I -0.093; F -0.069; T -0.043; G -0.128; D -0.104; N -0.218; H 0.104; Y -0.073; M -0.211; C -0.229; V -0.048; K 0.005; Q 0.049; L -0.001; P 0.051; W -0.302
